Article PMC6309520
Like-named read-outs stand apart in the source and are kept apart here.

Assays:
Assay in all cases: Michaelis-Menten kinetics
[1] = substrate: Nc1ncnc2c1ncn2[C@@H]1O[C@H](COP(=O)(O)OP(=O)(O)OC[C@H]2O[C@H](Oc3ccc([N+](=O)[O-])cc3)[C@H](O)[C@@H]2O)[C@@H](O)[C@H]1O; assay type: biochemical, Tetrahymena thermophila
[2] = substrate: Nc1ncnc2c1ncn2[C@@H]1O[C@H](COP(=O)(O)OP(=O)(O)OC[C@H]2O[C@H](Oc3ccc4c(C(F)(F)F)cc(=O)oc4c3)[C@H](O)[C@@H]2O)[C@@H](O)[C@H]1O; assay type: biochemical, Tetrahymena thermophila
[3] = substrate: Nc1ncnc2c1ncn2[C@@H]1O[C@H](COP(=O)(O)OP(=O)(O)OC[C@H]2O[C@H](Oc3ccc4c(C(F)(F)F)cc(=O)oc4c3)[C@H](O)[C@@H]2O)[C@@H](O)[C@H]1O; assay type: biochemical, Homo sapiens
[4] = substrate: Nc1ncnc2c1ncn2[C@@H]1O[C@H](COP(=O)(O)OP(=O)(O)OC[C@H]2O[C@H](Oc3ccc([N+](=O)[O-])cc3)[C@H](O)[C@@H]2O)[C@@H](O)[C@H]1O; assay type: biochemical, Homo sapiens; settings: Mg2+ ([…] MgCl2 in assay buffer)

B1: ttPARG (T. thermophila PARG) (Tetrahymena thermophila) (protein)
chain: MIEAEKQENKKIQDYQFPLPQKNSELWIIQKKTLQDLSSGKQKLDSFQSLESILEILRDSKNQNDEKYFNLKAVFEQLDKEEQTYFLEQFIPKICQLVLKIKKKQLKNQIPKESKIYEAAFSREEISYYVSCMFLCILKDQDRKIYKDFRLIYLKDLVQQINIRRQEKIKCFYEYLKQALDFSEKESKEVVIFQRINCGQLEDYENWVDKLKAIKLKNVQLTDDKLIEDFPGTLQVDFANCDIGGGILGNGLVQEEIRFCVCPEMLVSLLVFDQSMEANEVIIMKGIKQYSDYQGYSNSFRFVKMGNSKIQKQKRNNPQTILAIDALCFNSSDNQFSEVNVSRELNKSYMGFKQEDQLKTISTGKWGCGAFLGVFDLKFAIQWIASSRSNKKMIICTFQDEQTTKQIQQVFDLYKQKNASIFLKLVMDYPNSKYMEDYTLLEYLIELGKEKATSKNS
Work on B1 yielded a Km [1] of 210 ± 10 µM, a Vmax [1] of 16.9 µmol/min/mg and a Km [2] of 210 ± 13 µM. It also gave a Vmax [2] of 28.6 µmol/min/mg.

B2: PARG (poly(ADP-ribose) glycohydrolase) (Homo sapiens) (protein)
chain: MNAGPGCEPCTKRPRWGAATTSPAASDARSFPSRQRRVLDPKDAHVQFRVPPSSPACVPGRAGQHRGSATSLVFKQKTITSWMDTKGIKTAESESLDSKENNNTRIESMMSSVQKDNFYQHNVEKLENVSQLSLDKSPTEKSTQYLNQHQTAAMCKWQNEGKHTEQLLESEPQTVTLVPEQFSNANIDRSPQNDDHSDTDSEENRDNQQFLTTVKLANAKQTTEDEQAREAKSHQKCSKSCDPGEDCASCQQDEIDVVPESPLSDVGSEDVGTGPKNDNKLTRQESCLGNSPPFEKESEPESPMDVDNSKNSCQDSEADEETSPGFDEQEDGSSSQTANKPSRFQARDADIEFRKRYSTKGGEVRLHFQFEGGESRTGMNDLNAKLPGNISSLNVECRNSKQHGKKDSKITDHFMRLPKAEDRRKEQWETKHQRTERKIPKYVPPHLSPDKKWLGTPIEEMRRMPRCGIRLPLLRPSANHTVTIRVDLLRAGEVPKPFPTHYKDLWDNKHVKMPCSEQNLYPVEDENGERTAGSRWELIQTALLNKFTRPQNLKDAILKYNVAYSKKWDFTALIDFWDKVLEEAEAQHLYQSILPDMVKIALCLPNICTQPIPLLKQKMNHSITMSQEQIASLLANAFFCTFPRRNAKMKSEYSSYPDINFNRLFEGRSSRKPEKLKTLFCYFRRVTEKKPTGLVTFTRQSLEDFPEWERCEKPLTRLHVTYEGTIEENGQGMLQVDFANRFVGGGVTSAGLVQEEIRFLINPELIISRLFTEVLDHNECLIITGTEQYSEYTGYAETYRWSRSHEDGSERDDWQRRCTEIVAIDALHFRRYLDQFVPEKMRRELNKAYCGFLRPGVSSENLSAVATGNWGCGAFGGDARLKALIQILAAAAAERDVVYFTFGDSELMRDIYSMHIFLTERKLTVGDVYKLLLRYYNEECRNCSTPGPDIKLYPFIYHAVESCAETADHSGQRTGT
Work on B2 yielded a Km [3] of 66.2 ± 15 µM and a Vmax [3] of 0.84 µmol/min/mg.

B3: ARH3 (ADP-ribosyl hydrolase 3, ADPRHL2) (Homo sapiens) (protein)
chain: MAAAAMAAAAGGGAGAARSLSRFRGCLAGALLGDCVGSFYEAHDTVDLTSVLRHVQSLEPDPGTPGSERTEALYYTDDTAMARALVQSLLAKEAFDEVDMAHRFAQEYKKDPDRGYGAGVVTVFKKLLNPKCRDVFEPARAQFNGKGSYGNGGAMRVAGISLAYSSVQDVQKFARLSAQLTHASSLGYNGAILQALAVHLALQGESSSEHFLKQLLGHMEDLEGDAQSVLDARELGMEERPYSSRLKKIGELLDQASVTREEVVSELGNGIAAFESVPTAIYCFLRCMEPDPEIPSAFNSLQRTLIYSISLGGDTDTIATMAGAIAGAYYGMDQVPESWQQSCEGYEETDILAQSLHRVFQKS
For B3, the Km [4] was 3.2 ± 0.6 µM, the Vmax [4] was 1.7 µmol/min/mg and the Km ([3]; Mg2+ ([…] MgCl2 in assay buffer)) was 6.3 ± 0.2 µM. It also gave a Vmax ([3]; Mg2+ ([…] MgCl2 in assay buffer)) of 1.61 µmol/min/mg.
